How the values were obtained:
[1] = target: T1, Flt3D1-D5, recombinant human Flt3 ectodomain (residues 27-541) with C-terminal hexahistidine tag (human, UniProt P36888 27-541, N-linked glycosylation at 43, 100, 151, 306, 323, 351, 354, 473, 502 (at least partially occupied, by mass spectrometry)); assay: ITC at 37 C, Flt3 ectodomain titrated with FL; Flt3D1-D5 ectodomain
T1 construct: Secreted from HEK293T or HEK293S GnTI-/- cells and glycosylated; The secretion signal is not part of the mature protein; also called Flt3D15(27-541); Flt3D1-5
T1 sequence: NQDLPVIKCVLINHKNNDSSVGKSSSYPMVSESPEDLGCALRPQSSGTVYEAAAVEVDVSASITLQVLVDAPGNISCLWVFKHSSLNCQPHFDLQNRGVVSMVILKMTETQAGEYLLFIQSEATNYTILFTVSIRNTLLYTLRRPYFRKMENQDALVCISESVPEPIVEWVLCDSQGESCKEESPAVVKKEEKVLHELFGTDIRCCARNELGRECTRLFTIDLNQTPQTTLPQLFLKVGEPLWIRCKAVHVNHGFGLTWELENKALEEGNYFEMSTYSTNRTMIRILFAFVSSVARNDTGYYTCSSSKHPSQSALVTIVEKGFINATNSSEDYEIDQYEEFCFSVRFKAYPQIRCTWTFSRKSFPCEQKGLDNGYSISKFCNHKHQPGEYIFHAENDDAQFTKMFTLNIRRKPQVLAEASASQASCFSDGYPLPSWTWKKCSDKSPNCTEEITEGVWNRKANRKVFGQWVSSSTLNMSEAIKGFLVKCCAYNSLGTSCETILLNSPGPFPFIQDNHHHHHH
Method: (§1) Experiments were carried out using a VP-ITC MicroCalorimeter (MicroCal, MA) at 37° C., and data were analyzed using the Origin ITC analysis software package supplied by MicroCal. Purified recombinant Flt3 ectodomain constructs and FL were dialyzed overnight against 10 mM Tris-HCl, pH 7.4, at 4° C. Protein concentrations were measured spectrophotometrically at 280 nm using calculated theoretical extinction coefficients and all solutions were extensively degassed prior to use. The sample was stirred at a speed of 400 rpm throughout. The thermal titration data were fit to the “one binding site model”, and apparent molar reaction enthalpy (ΔH°), apparent entropy (ΔS°), association constant (Ka) and stoichiometry of binding (N) were determined. Several titrations were performed to evaluate reproducibility.
(§2) To quantify the thermodynamics, stoichiometry and affinity of extracellular complexes and to dissect the contribution of individual ectodomain modules to complex formation, isothermal titration calorimetry (ITC) was employed. This led to a number of consensus observations (FIG. 1D-F). […] Upon adjusting the Flt3 concentration to the approximate active receptor fraction (˜50%) estimated via the chromatographic elution profile of complex formation, a stoichiometry and thermodynamic signature consistent with that of the other two complexes is detected (FIG. 1F).

[2] = target: T2, Flt3D1, recombinant human Flt3 ectodomain variant (residues 27-161) with C-terminal hexahistidine tag (human, UniProt P36888 27-161, N-linked glycosylation (glycosylated protein from HEK293 cells)); assay: size-exclusion chromatography with FL
T2 construct: also called Flt3D1(27-161)
T2 sequence: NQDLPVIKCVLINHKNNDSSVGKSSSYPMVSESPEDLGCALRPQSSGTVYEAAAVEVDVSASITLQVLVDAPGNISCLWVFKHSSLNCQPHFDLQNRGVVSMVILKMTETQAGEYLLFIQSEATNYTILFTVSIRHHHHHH

[3] = target: T3, Flt3D1-D2, recombinant human Flt3 ectodomain variant (residues 27-244) with C-terminal hexahistidine tag (human, UniProt P36888 27-244, N-linked glycosylation (glycosylated protein from HEK293 cells)); assay: size-exclusion chromatography with FL
T3 construct: also called Flt3D12 (27-244)
T3 sequence: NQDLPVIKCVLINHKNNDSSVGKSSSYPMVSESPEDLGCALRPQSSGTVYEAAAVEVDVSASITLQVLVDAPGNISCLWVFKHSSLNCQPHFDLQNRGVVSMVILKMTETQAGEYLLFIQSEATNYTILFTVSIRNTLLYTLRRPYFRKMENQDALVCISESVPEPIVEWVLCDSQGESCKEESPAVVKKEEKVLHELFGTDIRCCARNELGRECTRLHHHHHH

[4] = target: T4, Flt3D1-D4, recombinant human Flt3 ectodomain variant (residues 27-434) with C-terminal hexahistidine tag (human, UniProt P36888 27-434, N-linked glycosylation (glycosylated protein from HEK293 cells)); assay: ITC at 37 C, Flt3 ectodomain titrated with FL; Flt3D1-D4 ectodomain
T4 construct: Secreted from HEK293T or HEK293S GnTI-/- cells and glycosylated; also called Flt3D14(27-434); Flt3D1-4
T4 sequence: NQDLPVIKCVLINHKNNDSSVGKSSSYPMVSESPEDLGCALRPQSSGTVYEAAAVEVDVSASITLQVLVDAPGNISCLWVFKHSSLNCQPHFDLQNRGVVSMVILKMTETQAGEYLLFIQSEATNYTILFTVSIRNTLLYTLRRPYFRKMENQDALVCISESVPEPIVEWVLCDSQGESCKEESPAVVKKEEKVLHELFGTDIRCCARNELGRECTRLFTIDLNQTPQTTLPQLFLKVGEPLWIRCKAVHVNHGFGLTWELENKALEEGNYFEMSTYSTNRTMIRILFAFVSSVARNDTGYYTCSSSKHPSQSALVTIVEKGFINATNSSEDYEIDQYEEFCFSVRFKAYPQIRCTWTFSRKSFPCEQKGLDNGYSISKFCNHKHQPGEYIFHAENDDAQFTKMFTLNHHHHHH
Method: as §1, §2

[5] = target: T5, Flt3D1-D3, recombinant human Flt3 ectodomain variant (residues 27-346) with C-terminal hexahistidine tag (human, UniProt P36888 27-346, N-linked glycosylation (glycosylated protein from HEK293 cells)); assay: ITC at 37 C, Flt3 ectodomain titrated with FL; Flt3D1-D3 ectodomain; about 50% active receptor fraction
T5 construct: also called Flt3D13(27-346)
T5 sequence: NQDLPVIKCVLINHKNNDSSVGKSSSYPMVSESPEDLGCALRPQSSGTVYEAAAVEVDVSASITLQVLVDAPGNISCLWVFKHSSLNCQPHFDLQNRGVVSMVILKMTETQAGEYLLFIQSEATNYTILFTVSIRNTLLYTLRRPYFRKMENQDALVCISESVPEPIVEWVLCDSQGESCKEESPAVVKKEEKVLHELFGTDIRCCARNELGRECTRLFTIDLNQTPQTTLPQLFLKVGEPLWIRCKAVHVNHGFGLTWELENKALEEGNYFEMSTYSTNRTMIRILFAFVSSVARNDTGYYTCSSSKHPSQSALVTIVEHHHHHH
Method: as §1, §2

[6] = target: T4, Flt3D1-D4, recombinant human Flt3 …; assay: ITC at 37 C, one binding site model
Method: as §1, §2

[7] = target: T1, Flt3D1-D5, recombinant human Flt3 …; assay: ITC at 37 C, one binding site model
Method: as §1, §2

[8] = target: T4, Flt3D1-D4, recombinant human Flt3 …; assay: isothermal titration calorimetry at 37 °C, Flt3 ectodomain titrated with FL, one binding site model
Text: (§3) (A-B) Isolation of Flt3D1-D5:FL and Flt3D1-D4:FL by size-exclusion chromatography (SEC). Also shown are Coomassie-stained SDS-PAGE strips corresponding to the peak fraction of the isolated complexes. The elution profiles of the complexes are characterized by large shifts to a single, faster migrating peak corresponding to the respective complex. (C) Size-exclusion chromatography on the Flt3D1-D3:FL mixture at the end of an ITC experiment, showing that a large amount of Flt3D1-D3 remains in the unbound form. Identical elution profiles were obtained in standard SEC experiments as well, in the presence of a large molar excess of FL. (D-F) Binding isotherms and thermodynamic parameters of FL binding to Flt3 ectodomains obtained by Isothermal Titration calorimetry (ITC). All experiments were performed by titrating recombinant Flt3 extracellular domains with FL.
as §1

[9] = target: T5, Flt3D1-D3, recombinant human Flt3 …; assay: as above
Text: as §3, §1

[10] = target: T1, Flt3D1-D5, recombinant human Flt3 …; assay: as above
Text: as §3, §1

- Kd [1]: 8.7 nM
- binding result [2]: no binding
- binding result [3]: no binding
- Kd [4]: 40 nM
- Kd [5]: 70 nM
- stoichiometry of binding (N) [6]: 0.5
- stoichiometry of binding (N) [7]: 0.5
- N [8]: 0.45
- ΔH [8]: -55.9 kcal/mol
- ΔS [8]: -146 cal mol-1 K-1
- Kd [9]: 74.6 nM
- N [9]: 0.121
- ΔH [9]: -24.9 kcal/mol
- ΔS [9]: -47.5 cal mol-1 K-1
- N [10]: 0.42
- ΔH [10]: -51.7 kcal/mol
- ΔS [10]: -130 cal mol-1 K-1
B1: recombinant human FL (fms-like tyrosine kinase receptor-3 ligand) produced in E. coli (ligand)
chain: TQDCSFQHSPISSDFAVKIRELSDYLLQDYPVTVASNLQDEELCGGLWRLVLAQRWMERLKTVAGSKMQGLLERVNTEIHFVTKCAFQPPPSCLRFVQTNISRLLQETSEQLVALKPWITRQNFSRCLELQCQP
notes: Dimeric cytokine; also called Flt3 ligand; cognate ligand
